{
  "source": "paper PMC4114212",
  "about": "(Science signaling, 2012)",
  "binders": {"B1": {"name": "GST-tagged Cardif peptide, residues 138 to 153 (encompasses T2BM) (peptide)", "chain": "PSCPKPVQDTQPPESP"}, "B2": {"name": "TRAF domain of TRAF5, crystallised construct (residues 381 through the C-terminal end) (domain or fragment, mouse, UniProt P70191 381-558, looked up)", "chain": "NIHKAQLNKNEERFKQLEGACYSGKLIWKVTDYRVKKREAVEGHTVSVFSQPFYTSRCGYRLCARAYLNGDGSGKGTHLSLYFVVMRGEFDSLLQWPFRQRVTLMLLDQSGKKNHIVETFKADPNSSSFKRPDGEMNIASGCPRFVSHSTLENSKNTYIKDDTLFLKVAVDLTDLEDL"}, "B3": {"name": "recombinant TRAF domain of TRAF3 (residues 376 to 565), shortened by trypsin for crystallisation (domain or fragment, mouse, UniProt Q60803 376-565, looked up)", "chain": "NTGLLESQLSRHDQMLSVHDIRLADMDLRFQVLETASYNGVLIWKIRDYKRRKQEAVMGKTLSLYSQPFYTGYFGYKMCARVYLNGDGMGKGTHLSLFFVIMRGEYDALLPWPFKQKVTLMLMDQGSSRRHLGDAFKPDPNSSSFKKPTGEMNIASGCPVFVAQTVLENGTYIKDDTIFIKVIVDTSDLP"}},
  "key": {"[1]": {"biological_target": "T1, TRAF domain of mouse TRAF3 (residues 376 through the C terminus), wild type (mouse, UniProt Q60803 376-567)", "T1 sequence (looked up)": "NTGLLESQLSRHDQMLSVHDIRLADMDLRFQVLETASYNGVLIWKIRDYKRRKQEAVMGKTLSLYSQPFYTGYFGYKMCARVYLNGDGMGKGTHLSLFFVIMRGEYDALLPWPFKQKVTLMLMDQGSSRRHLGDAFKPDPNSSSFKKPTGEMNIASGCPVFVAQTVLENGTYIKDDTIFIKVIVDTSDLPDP", "assay": "pull-down"}, "crystal structure [2]": {"biological_target": "the molecule itself", "assay": "crystal structure"}, "[3]": {"biological_target": "T2, Cardif peptide (residues 138 to 158) used for cocrystallization with TRAF3", "T2 peptide": "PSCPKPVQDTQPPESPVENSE", "assay": "crystal structure"}, "crystal structure [4]": {"biological_target": "the molecule itself", "assay": "crystal structure", "remark": "listed apart in the source"}},
  "note": "Read-outs that look alike come from different tables or passages of the source.",
  "data": [
    {"binder": "B1", "values": [
      {"measurement": "binding result", "setting": "[1]", "result": "binds"}
    ]},
    {"binder": "B2", "values": [
      {"measurement": "stoichiometry N", "setting": "crystal structure [2]", "result": 3}
    ]},
    {"binder": "B3", "values": [
      {"measurement": "stoichiometry N", "setting": "[3]", "result": 1},
      {"measurement": "stoichiometry N", "setting": "crystal structure [4]", "result": 3}
    ]}
  ]
}
